The substances below were run against CCR5 (UniProt P51681) (assay: cell-based or functional assay).
Chain of UniProt P51681 (P51681 whole entry): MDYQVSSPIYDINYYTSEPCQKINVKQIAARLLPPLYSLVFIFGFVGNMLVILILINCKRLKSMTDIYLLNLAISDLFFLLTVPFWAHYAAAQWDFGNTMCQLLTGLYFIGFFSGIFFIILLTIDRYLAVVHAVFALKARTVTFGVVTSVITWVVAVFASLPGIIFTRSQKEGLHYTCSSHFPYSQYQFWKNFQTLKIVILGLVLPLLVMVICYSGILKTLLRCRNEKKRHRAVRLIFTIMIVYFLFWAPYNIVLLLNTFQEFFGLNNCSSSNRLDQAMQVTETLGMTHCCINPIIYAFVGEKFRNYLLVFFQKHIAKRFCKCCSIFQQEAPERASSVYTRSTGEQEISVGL

Row | Substance | Mean Relative Potency (IC50 of cell fusion inhibition relative to AOP-RANTES = 100) (relative to AOP-RANTES = 100) | Average infectivity IC50 (cell-free viral infection assay) | Cell-fusion result for comparison (IC50) | EC50, HeLa P4-CCR5/HeLa-Env-ADA cell fusion | percentage fusion inhibition at the lowest dilution
1 | AOP-RANTES-K(palmitoyl)-G (from UniProt P13501 25-91) (ligand) | 45 | – | – | – | –
2 | aminooxypentane-RANTES (2-68), CH3-(CH2)4-O-N=CH-CO-RANTES (2-68) (from UniProt P13501 25-91) (ligand) | 100 | 0.145 nM | 0.48 nM | 1.81 nM | –
3 | NNY-P-Y3tbuA-RANTES (4-68) (from UniProt P13501 25-91) (ligand) | 7 | 0.014 nM | 0.038 nM | – | > 50%
4 | NNY-P2Thz-Y3Chg-RANTES (4-68) (from UniProt P13501 25-91) (ligand) | 2 | – | – | – | > 50%
5 | NNY-P2Thz-Y3tButA-RANTES (4-68) (from UniProt P13501 25-91) (ligand) | 4 | – | – | – | > 50%
6 | n-nonanoyl-RANTES (2-68), CH3-(CH2)7-C(O)-RANTES (2-68) (from UniProt P13501 25-91) (ligand) | – | 0.024 nM | 0.097 nM | 0.323 nM | –
7 | NNY-P-Y3Chg-RANTES (4-68) (from UniProt P13501 25-91) (ligand) | 7 | 0.012 nM | 0.026 nM | – | > 50%
